± gives the uncertainty stated by the source.
B1: Ankyrin repeat and SAM domain-containing protein 6, residues 774 to 836; numbered along this chain, Q68DC2 (parent)
chain: DEDELTGILKKLSLEKYQPIFEEQEVDMEAFLTLTDGDLKELGIKTDGSRQQILAAISELNAG

Variants of: B1
Experiment: abundance fitness (aPCA) (normalised: wild type 0, dead -1); higher = more abundant; growth selection in yeast, the domain comes from the species named
Conditions: Homo sapiens

Going from DEDELTGILRKLSLEKYQPIFEEQEVDMEAFLTLTDGDLKELGIKTDGSRQQILAAISELNAG to DEDELTGILFKLSLEKYQPIFEEQEVDMEAFLTLTDGDLKELGIKTDGSRQQILAAISELNAG, the abundance fitness falls from -0.327 ± 0.052 to -1.16 ± 0.15.

Going from DEDELTGILSKLSLEKYQPIFEEQEVDMEAFLTLTDGDLKELGIKTDGSRQQILAAISELNAG to DEDELTGILIKLSLEKYQPIFEEQEVDMEAFLTLTDGDLKELGIKTDGSRQQILAAISELNAG, the abundance fitness falls from -0.185 ± 0.073 to -0.815 ± 0.16.

First: DEDELTGILGKLSLEKYQPIFEEQEVDMEAFLTLTDGDLKELGIKTDGSRQQILAAISELNAG
Second: DEDELTYILKKLSLEKYQPIFEEQEVDMEAFLTLTDGDLKELGIKTDGSRQQILAAISELNAG
The abundance fitness of the first is lower: -0.56 ± 0.046 for the first, -0.044 ± 0.11 for the second.

DEDELTPILKKLSLEKYQPIFEEQEVDMEAFLTLTDGDLKELGIKTDGSRQQILAAISELNAG and DEDELTWILKKLSLEKYQPIFEEQEVDMEAFLTLTDGDLKELGIKTDGSRQQILAAISELNAG are within error of each other in abundance fitness: -0.111 ± 0.068 for the first, -0.005 ± 0.063 for the second.

DEDELTMILKKLSLEKYQPIFEEQEVDMEAFLTLTDGDLKELGIKTDGSRQQILAAISELNAG and DEDELTRILKKLSLEKYQPIFEEQEVDMEAFLTLTDGDLKELGIKTDGSRQQILAAISELNAG are within error of each other in abundance fitness: 0.199 ± 0.073 for the first, 0.108 ± 0.045 for the second.

DEDELTQILKKLSLEKYQPIFEEQEVDMEAFLTLTDGDLKELGIKTDGSRQQILAAISELNAG and DEDELTTILKKLSLEKYQPIFEEQEVDMEAFLTLTDGDLKELGIKTDGSRQQILAAISELNAG are within error of each other in abundance fitness: 0.177 ± 0.099 for the first, 0.111 ± 0.067 for the second.

DEDELTNILKKLSLEKYQPIFEEQEVDMEAFLTLTDGDLKELGIKTDGSRQQILAAISELNAG and DEDELTVILKKLSLEKYQPIFEEQEVDMEAFLTLTDGDLKELGIKTDGSRQQILAAISELNAG are within error of each other in abundance fitness: -0.092 ± 0.13 for the first, -0.191 ± 0.057 for the second.

Compared with DEDELTGDLKKLSLEKYQPIFEEQEVDMEAFLTLTDGDLKELGIKTDGSRQQILAAISELNAG, DEDELTGHLKKLSLEKYQPIFEEQEVDMEAFLTLTDGDLKELGIKTDGSRQQILAAISELNAG is higher in abundance fitness: -0.51 ± 0.1 for the first, -0.189 ± 0.072 for the second.

Going from DEDELTGELKKLSLEKYQPIFEEQEVDMEAFLTLTDGDLKELGIKTDGSRQQILAAISELNAG to DEDELTGMLKKLSLEKYQPIFEEQEVDMEAFLTLTDGDLKELGIKTDGSRQQILAAISELNAG, the abundance fitness rises from -0.206 ± 0.079 to 0.145 ± 0.078.

First: DEDELTGVLKKLSLEKYQPIFEEQEVDMEAFLTLTDGDLKELGIKTDGSRQQILAAISELNAG
Second: DEDELTGLLKKLSLEKYQPIFEEQEVDMEAFLTLTDGDLKELGIKTDGSRQQILAAISELNAG
The abundance fitness of the first is lower: -0.072 ± 0.1 for the first, 0.149 ± 0.061 for the second.

DEDELTGWLKKLSLEKYQPIFEEQEVDMEAFLTLTDGDLKELGIKTDGSRQQILAAISELNAG and DEDELTGRLKKLSLEKYQPIFEEQEVDMEAFLTLTDGDLKELGIKTDGSRQQILAAISELNAG are within error of each other in abundance fitness: -0.163 ± 0.058 for the first, -0.238 ± 0.038 for the second.

First: DEDELTGPLKKLSLEKYQPIFEEQEVDMEAFLTLTDGDLKELGIKTDGSRQQILAAISELNAG
Second: DEDELTGALKKLSLEKYQPIFEEQEVDMEAFLTLTDGDLKELGIKTDGSRQQILAAISELNAG
The abundance fitness of the first is lower: -1.03 ± 0.13 for the first, 0.158 ± 0.075 for the second.

DEDELTGTLKKLSLEKYQPIFEEQEVDMEAFLTLTDGDLKELGIKTDGSRQQILAAISELNAG and DEDELTGKLKKLSLEKYQPIFEEQEVDMEAFLTLTDGDLKELGIKTDGSRQQILAAISELNAG are within error of each other in abundance fitness: -0.058 ± 0.065 for the first, -0.162 ± 0.044 for the second.

DEDELTGSLKKLSLEKYQPIFEEQEVDMEAFLTLTDGDLKELGIKTDGSRQQILAAISELNAG and DEDELTGFLKKLSLEKYQPIFEEQEVDMEAFLTLTDGDLKELGIKTDGSRQQILAAISELNAG are within error of each other in abundance fitness: -0.265 ± 0.066 for the first, -0.131 ± 0.16 for the second.

DEDELTGQLKKLSLEKYQPIFEEQEVDMEAFLTLTDGDLKELGIKTDGSRQQILAAISELNAG and DEDELTGCLKKLSLEKYQPIFEEQEVDMEAFLTLTDGDLKELGIKTDGSRQQILAAISELNAG are within error of each other in abundance fitness: 0.105 ± 0.089 for the first, -0.029 ± 0.088 for the second.

DEDELTGYLKKLSLEKYQPIFEEQEVDMEAFLTLTDGDLKELGIKTDGSRQQILAAISELNAG and DEDELTGNLKKLSLEKYQPIFEEQEVDMEAFLTLTDGDLKELGIKTDGSRQQILAAISELNAG are within error of each other in abundance fitness: -0.186 ± 0.078 for the first, -0.192 ± 0.1 for the second.

First: DEDELTGILKKKSLEKYQPIFEEQEVDMEAFLTLTDGDLKELGIKTDGSRQQILAAISELNAG
Second: DEDELTGILKKHSLEKYQPIFEEQEVDMEAFLTLTDGDLKELGIKTDGSRQQILAAISELNAG
The abundance fitness of the first is lower: -0.256 ± 0.09 for the first, 0.171 ± 0.09 for the second.

DEDELTGILKKFSLEKYQPIFEEQEVDMEAFLTLTDGDLKELGIKTDGSRQQILAAISELNAG and DEDELTGILKKISLEKYQPIFEEQEVDMEAFLTLTDGDLKELGIKTDGSRQQILAAISELNAG are within error of each other in abundance fitness: 0.005 ± 0.11 for the first, 0.254 ± 0.29 for the second.

DEDELTGILKKDSLEKYQPIFEEQEVDMEAFLTLTDGDLKELGIKTDGSRQQILAAISELNAG and DEDELTGILKKESLEKYQPIFEEQEVDMEAFLTLTDGDLKELGIKTDGSRQQILAAISELNAG are within error of each other in abundance fitness: -1.08 ± 0.21 for the first, -0.949 ± 0.18 for the second.

Compared with DEDELTGILKKASLEKYQPIFEEQEVDMEAFLTLTDGDLKELGIKTDGSRQQILAAISELNAG, DEDELTGILKKMSLEKYQPIFEEQEVDMEAFLTLTDGDLKELGIKTDGSRQQILAAISELNAG is higher in abundance fitness: -0.439 ± 0.082 for the first, 0.038 ± 0.064 for the second.

Going from DEDELTGILKKCSLEKYQPIFEEQEVDMEAFLTLTDGDLKELGIKTDGSRQQILAAISELNAG to DEDELTGILKKNSLEKYQPIFEEQEVDMEAFLTLTDGDLKELGIKTDGSRQQILAAISELNAG, the abundance fitness falls from -0.023 ± 0.077 to -0.402 ± 0.29.

With DEDELTGILKKGSLEKYQPIFEEQEVDMEAFLTLTDGDLKELGIKTDGSRQQILAAISELNAG the abundance fitness was -0.927 ± 0.078.
